For test [1], the target named is T1, EP1 Receptor (Homo sapiens, UniProt P34995).
T1 construct: host or cells: HEK293T
T1 sequence (P34995 1-402): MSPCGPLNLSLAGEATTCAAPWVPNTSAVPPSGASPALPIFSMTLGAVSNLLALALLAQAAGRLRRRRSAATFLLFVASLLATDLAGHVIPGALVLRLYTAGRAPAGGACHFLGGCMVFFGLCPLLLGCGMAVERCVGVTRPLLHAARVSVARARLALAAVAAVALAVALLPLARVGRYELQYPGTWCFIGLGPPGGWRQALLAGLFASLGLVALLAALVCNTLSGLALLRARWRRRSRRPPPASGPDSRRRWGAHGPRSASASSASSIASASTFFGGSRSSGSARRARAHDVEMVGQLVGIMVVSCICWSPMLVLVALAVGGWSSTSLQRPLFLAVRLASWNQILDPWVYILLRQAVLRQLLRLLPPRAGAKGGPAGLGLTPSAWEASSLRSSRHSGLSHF
Kind of test: Fluorescent calcium assay, stable cell line, EP1 Receptor. It counts as cell-based. The note with it: read-out: EP1 Receptor EC50 for PGE2; Fluorescent Ca^2+ assay, cell line stably expressing the receptor.

For test [2], the target named is T1, EP1 Receptor. The format is cell-based. The note with it: read-out: EP1 Receptor EC50 for PGE2.
Description: The cells were subsequently thawed and either directly placed into FreeStyle media (INVITROGEN) containing 5 μM coelenterazine (Thaw/Assay), or plated in a flask overnight in growth media consisting of DMEM/F12 containing 10% fetal bovine serum, non-essential amino acids, and penicillin/streptomycin prior to loading with coelenterazine (Thaw/ON Recovery). After loading with coelenterazine for 3-4 h, the cells were centrifuged and resuspended in HBSS with calcium and magnesium.
Thaw/Assay indicates dose response of cells that were thawed and directly loaded with coelenterazine prior to assay, and Thaw/ON Recovery indicates dose response of cells allowed to recover in growth media overnight prior to loading and assay. […] The EC50 values for activation of each receptor by its ligand for each cell treatment method were determined as described above for FIG. 5 for cytosolic clytin K168D photoprotein transfected into HEK293T cells with cotransfected GIP Receptor and G protein.
A short description of test [3]: Calcium EC50 of mitochondrially targeted photoproteins in HEK293T cells without cotransfected GPCR or G protein (Table II). It counts as cell-based. The note with it: no cotransfected GPCR or G protein.
Test [4] addresses T2, H1 histamine receptor (Homo sapiens, UniProt P35367).
T2 construct: expressed in transfected cells; host or cells: U-2OS
As to the kind of experiment: GPCR-mediated versus total bioluminescence in U-2OS cells (FIG. 4). The format is cell-based. The note with it: 10 μM histamine vs Triton X-100 with 1 mM calcium. The procedure: In another experiment, the ability of the various photoproteins to detect calcium flux in live cells was assessed by adding varying concentrations of histamine to cells in order to activate the H1 histamine receptor followed by measurement of bioluminescence of the various photoproteins. U-2OS cells were transfected with a cDNA encoding H1 histamine receptor along with a cDNA encoding either a wild-type photoprotein or a modified photoprotein according to the invention, as described above in Example 2, except that Lipofectamine-2000 (INVITROGEN) was used as the transfection reagent. On the second day, the cells were trypsinized, counted, and plated in a white tissue-culture treated 96-well plate (COSTAR) at a density of about 50,000 cells/well in growth media consisting of DMEM containing 10% fetal bovine serum, non-essential amino acids, HEPES and penicillin/streptomycin. On the third day, the medium was removed and cells were washed once with 200 μl/well of HBSS/HEPES (containing Ca^2+). Cells were subsequently incubated with 5 μM coelenterazine in HBSS/HEPES (containing Ca^2+) in a volume of 200 μl/well, for 3-4 hours at room temperature in the dark. After incubation, the coelenterazine solution was removed and cells were washed and replaced with HBSS/HEPES buffer containing both Ca^2+ and Mg^2+. 50 μl/well of histamine at varying concentrations in HBSS/HEPES containing both Ca^2+ and Mg^2+ was added to the cells and total bioluminescence was measured at 20 seconds using a Victor2 luminometer.
In an exemplary experiment, U-2OS cells were transfected, plated and loaded with coelenterazine as described in Example 3. Luminescence induced by buffer alone or by 10 μM histamine was measured also as described in Example 3. Additionally, luminescence induced by addition of Triton X-100 in the presence of 1 mM calcium was also determined in order to assess the total amount of active photoprotein detectable using saturating calcium concentrations in cells.

The conditions of test [5]: background statement; cited from earlier work.
In test [6] the target is T3, GIP Receptor (Homo sapiens, UniProt P48546).
T3 construct: host or cells: HEK293T
T3 sequence (P48546 22-466): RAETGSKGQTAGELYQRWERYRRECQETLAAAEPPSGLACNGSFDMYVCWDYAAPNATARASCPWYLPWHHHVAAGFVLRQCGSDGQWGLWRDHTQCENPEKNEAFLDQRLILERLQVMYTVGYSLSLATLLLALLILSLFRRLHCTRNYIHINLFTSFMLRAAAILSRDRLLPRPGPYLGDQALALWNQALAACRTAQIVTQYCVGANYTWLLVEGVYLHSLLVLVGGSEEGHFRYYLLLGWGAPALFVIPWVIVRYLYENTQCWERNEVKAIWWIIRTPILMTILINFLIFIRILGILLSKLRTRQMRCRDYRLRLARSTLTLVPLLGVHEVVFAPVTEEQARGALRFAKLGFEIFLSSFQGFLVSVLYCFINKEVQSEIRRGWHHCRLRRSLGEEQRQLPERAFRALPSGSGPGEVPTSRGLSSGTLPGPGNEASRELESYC
As to the kind of experiment: GIP receptor-mediated bioluminescence in HEK293T cells with chimeric promiscuous G protein (FIG. 5, Table II). It counts as cell-based.

Where two headings read alike, the source gives them in different places.

These results are taken from patent publication US20110081661A1, “Modified photoproteins with increased affinity for calcium and enhanced bioluminescence and uses thereof” (Millipore Corporation, priority 2009, published 2011).

T2 sequence (P35367 whole entry): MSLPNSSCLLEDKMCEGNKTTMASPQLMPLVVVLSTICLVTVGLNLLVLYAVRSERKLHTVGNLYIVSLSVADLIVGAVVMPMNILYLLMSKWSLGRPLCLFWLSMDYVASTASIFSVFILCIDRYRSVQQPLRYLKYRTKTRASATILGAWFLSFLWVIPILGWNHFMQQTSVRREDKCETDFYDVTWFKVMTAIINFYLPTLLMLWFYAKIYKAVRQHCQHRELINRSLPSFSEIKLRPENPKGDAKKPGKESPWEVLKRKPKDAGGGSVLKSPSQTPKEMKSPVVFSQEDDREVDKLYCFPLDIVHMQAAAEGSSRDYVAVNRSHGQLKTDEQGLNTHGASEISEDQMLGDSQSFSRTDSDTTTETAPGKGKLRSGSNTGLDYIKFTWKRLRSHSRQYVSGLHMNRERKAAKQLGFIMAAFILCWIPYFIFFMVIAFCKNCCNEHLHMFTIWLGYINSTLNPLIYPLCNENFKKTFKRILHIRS

On to `CCCCC[C@H](O)/C=C/[C@H]1[C@H](O)CC(=O)[C@@H]1C/C=C\CCCC(=O)O` [PGE2, prostaglandin E2], for which the EC50 in test [1] amounted to 3 nM; in test [2] (Luminescent Assay, Thaw/Assay) it was 6 nM; in test [2] (Luminescent assay, Thaw/ON Recovery) it was 10 nM.

B1: Cyto-aequorin: Wild-type Aequorin (wt-Aequorin) amino acid sequence, SEQ ID NO:2; cytosolic (protein, listed as Aequorea victoria)
chain: MTSKQYSVKLTSDFDNPRWIGRHKHMFNFLDVNHNGKISLDEMVYKASDIVINNLGATPEQAKRHKDAVEAFFGGAGMKYGVETDWPAYIEGWKKLATDELEKYAKNEPTLIRIWGDALFDIVDKDQNGAITLDEWKAYTKAAGIIQSSEDCEETFRVCDIDESGQLDVDEMTRQHLGFWYTMDPACEKLYGGAVP
Take B1: the EC50 in test [3] stood at 235 nM; in test [6] (HEK293T cells, GIP Receptor + promiscuous G protein, luminescence vs GIP concentration) it was 6.67 nM. Moreover, the “GPCR-mediated signal as % of the total signal” value in test [4] is given as “about 30%”. Besides, the affinity for calcium entry in test [5] is listed as “around 7 μM”. In addition, in test [6] (HEK293T cells, GIP Receptor + promiscuous G protein), the “Max signal with GIP (RLU × 10^−5)” value was determined as 1.21 RLU × 10^−5. In test [6] (signal induced by maximal GIP (1 μM) as percentage of signal induced by Triton X-100 with 1 mM Ca^2+), the “% GPCR/total” value is on record as 13.0%. The “Signal: background with GIP” value in test [6] (signal induced by maximal GIP (1 μM) divided by signal induced by buffer alone) stood at 29.4.

By EC50 is commonly meant the midpoint of the concentration-response curve.
